B1: Azoarcus group I ribozyme (parent)
chain: GUGCCUUGCGCCGGGAAACCACGCAAGGGAUGGUGUCAAAUUCGGCGAAACCUAAGCGCCCGCCCGGGCGUAUGGCAACGCCGAGCCAAGCUUCGGCGCCUGCGCCGAUGAAGGUGUAGAGACUAGACGGCACCCACCUAAGGCAAACGCUAUGGUGAAGGCAUAGUCCAGGGAGUGGCGAAAGUCACACAAACCGG

Variants of: B1
Assay: reverse-splicing fitness (ratio to wild type); higher = more active; in vitro selection; Mg2+ level not given
Method in brief: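 An in vitro group I ribozyme library with randomized positions was T7-transcribed and gel-purified. In triplicate, 10 pmol RNA in EPPS pH 7.5 was reacted with 50 pmoles of a 30-nt RNA substrate for 1 h at 37 °C across several added MgCl2 levels (1–48 mM), then stopped with EDTA. Products were reverse transcribed from a substrate-complementary primer, PCR-amplified and sequenced (HiSeq 4000). Fitness is a variant's read proportion after selection over that before, normalised to wild type.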
In the case of GUGCCUUGCGCCGGGAAACCACGCAAGGGAUGGUGUCAAAUUCGGCGAAACCUAAGCGCCCGCCCGGGCGUAUGGCAACGCGGAGCCAAGCUUCGGCGCCUGCGCCGAUGCAGGUGUAGUGACUAGACGGCACCCACCUAAGGCAAACGCUAUGGUGAAGGCAUAGUCUAGGGAGCGGCGAAAGUCACACAAACCGG, the reverse-splicing fitness is reported as 0.00475.
For GUGCCUUGCGCCGGGAAACCACGCAAGGGAUGGUGUCAAAUUCGGCGAAACCUAAGCGCCCGCCCGGGCGUAUGGCAACGCGGAGCCAAGCUUCGGCGCCUGCGCCGAUGCAGGUGUAGUGACUAGACGGCACCCACCUAAGGCAAACGCUAUGGUGAAGGCAUAGUCUAGGGAGGGGCGAAAGUCACACAAACCGG, the reverse-splicing fitness was 0.00247.
For GUGCCUUGCGCCGGGAAACCACGCAAGGGAUGGUGUCAAAUUCGGCGAAACCUAAGCGCCCGCCCGGGCGUAUGGCAACGCGGAGCCAAGCUUCGGCGCCUGCGCCGAUGCAGGUGUAGUGACUAGACGGCACCCACCUAAGGCAAACGCUAUGGUGAAGGCAUAGUCUAGGGAGAGGCGAAAGUCACACAAACCGG, the reverse-splicing fitness was 0.00632.
GUGCCUUGCGCCGGGAAACCACGCAAGGGAUGGUGUCAAAUUCGGCGAAACCUAAGCGCCCGCCCGGGCGUAUGGCAACGCGGAGCCAAGCUUCGGCGCCUGCGCCGAUGCAGGUGUAGAGACUAGACGGCACCCACCUAAGGCCAACGAUAUGGUGAAGGCAUAGUCUAGGGAGUGGCGAAAGUCACACAAACCGG showed a reverse-splicing fitness of 0.00955.
GUGCCUUGCGCCGGGAAACCACGCAAGGGAUGGUGUCAAAUUCGGCGAAACCUAAGCGCCCGCCCGGGCGUAUGGCAACGCGGAGCCAAGCUUCGGCGCCUGCGCCGAUGCAGGUGUAGAGACUAGACGGCACCCACCUAAGGCCAACGAUAUGGUGAAGGCAUAGUCAAGGGAGUGGCGAAAGUCACACAAACCGG showed a reverse-splicing fitness of 0.00842.
With GUGCCUUGCGCCGGGAAACCACGCAAGGGAUGGUGUCAAAUUCGGCGAAACCUAAGCGCCCGCCCGGGCGUAUGGCAACGCGGAGCCAAGCUUCGGCGCCUGCGCCGAUGCAGGUGUAGAGACUAGACGGCACCCACCUAAGGCCAACGAUAUGGUGAAGGCAUAGUCGAGGGAGUGGCGAAAGUCACACAAACCGG the reverse-splicing fitness was 0.00856.
In the case of GUGCCUUGCGCCGGGAAACCACGCAAGGGAUGGUGUCAAAUUCGGCGAAACCUAAGCGCCCGCCCGGGCGUAUGGCAACGCGGAGCCAAGCUUCGGCGCCUGCGCCGAUGCAGGUGUAGAGACUAGACGGCACCCACCUAAGGCCAACGAUAUGGUGAAGGCAUAGUCUAGGGAGGGGCGAAAGUCACACAAACCGG, the reverse-splicing fitness is reported as 0.0092.
For GUGCCUUGCGCCGGGAAACCACGCAAGGGAUGGUGUCAAAUUCGGCGAAACCUAAGCGCCCGCCCGGGCGUAUGGCAACGCGGAGCCAAGCUUCGGCGCCUGCGCCGAUGCAGGUGUAGAGACUAGACGGCACCCACCUAAGGCCAACGAUAUGGUGAAGGCAUAGUCUAGGGAGCGGCGAAAGUCACACAAACCGG, the reverse-splicing fitness was 0.0122.
With GUGCCUUGCGCCGGGAAACCACGCAAGGGAUGGUGUCAAAUUCGGCGAAACCUAAGCGCCCGCCCGGGCGUAUGGCAACGCGGAGCCAAGCUUCGGCGCCUGCGCCGAUGCAGGUGUAGAGACUAGACGGCACCCACCUAAGGCCAACGAUAUGGUGAAGGCAUAGUCUAGGGAGAGGCGAAAGUCACACAAACCGG the reverse-splicing fitness was 0.0135.
In the case of GUGCCUUGCGCCGGGAAACCACGCAAGGGAUGGUGUCAAAUUCGGCGAAACCUAAGCGCCCGCCCGGGCGUAUGGCAACGCGGAGCCAAGCUUCGGCGCCUGCGCCGAUGCAGGUGUAGUGACUAGACGGCACCCACCUAAGGCAAACGCUAUGGUGAAGGCAUAGUCGAGGGAGGGGCGAAAGUCACACAAACCGG, the reverse-splicing fitness is reported as 0.00213.
Work on GUGCCUUGCGCCGGGAAACCACGCAAGGGAUGGUGUCAAAUUCGGCGAAACCUAAGCGCCCGCCCGGGCGUAUGGCAACGCGGAGCCAAGCUUCGGCGCCUGCGCCGAUGCAGGUGUAGUGACUAGACGGCACCCACCUAAGGCAAACGCUAUGGUGAAGGCAUAGUCGAGGGAGCGGCGAAAGUCACACAAACCGG yielded a reverse-splicing fitness of 0.00367.
GUGCCUUGCGCCGGGAAACCACGCAAGGGAUGGUGUCAAAUUCGGCGAAACCUAAGCGCCCGCCCGGGCGUAUGGCAACGCGGAGCCAAGCUUCGGCGCCUGCGCCGAUGCAGGUGUAGUGACUAGACGGCACCCACCUAAGGCAAACGCUAUGGUGAAGGCAUAGUCGAGGGAGAGGCGAAAGUCACACAAACCGG gave a reverse-splicing fitness of 0.00344.
GUGCCUUGCGCCGGGAAACCACGCAAGGGAUGGUGUCAAAUUCGGCGAAACCUAAGCGCCCGCCCGGGCGUAUGGCAACGCGGAGCCAAGCUUCGGCGCCUGCGCCGAUGCAGGUGUAGUGACUAGACGGCACCCACCUAAGGCAAACGCUAUGGUGAAGGCAUAGUCGAGGGAGUGGCGAAAGUCACACAAACCGG showed a reverse-splicing fitness of 0.00478.
Variant GUGCCUUGCGCCGGGAAACCACGCAAGGGAUGGUGUCAAAUUCGGCGAAACCUAAGCGCCCGCCCGGGCGUAUGGCAACGCGGAGCCAAGCUUCGGCGCCUGCGCCGAUGCAGGUGUAGUGACUAGACGGCACCCACCUAAGGCAAACGCUAUGGUGAAGGCAUAGUCUAGGGAGUGGCGAAAGUCACACAAACCGG has a reverse-splicing fitness of 0.00571.
In the case of GUGCCUUGCGCCGGGAAACCACGCAAGGGAUGGUGUCAAAUUCGGCGAAACCUAAGCGCCCGCCCGGGCGUAUGGCAACGCGGAGCCAAGCUUCGGCGCCUGCGCCGAUGCAGGUGUAGUGACUAGACGGCACCCACCUAAGGCAAACGCUAUGGUGAAGGCAUAGUCCAGGGAGAGGCGAAAGUCACACAAACCGG, the reverse-splicing fitness is reported as 0.0113.
In the case of GUGCCUUGCGCCGGGAAACCACGCAAGGGAUGGUGUCAAAUUCGGCGAAACCUAAGCGCCCGCCCGGGCGUAUGGCAACGCGGAGCCAAGCUUCGGCGCCUGCGCCGAUGCAGGUGUAGUGACUAGACGGCACCCACCUAAGGCAAACGCUAUGGUGAAGGCAUAGUCCAGGGAGGGGCGAAAGUCACACAAACCGG, the reverse-splicing fitness is reported as 0.00466.
Variant GUGCCUUGCGCCGGGAAACCACGCAAGGGAUGGUGUCAAAUUCGGCGAAACCUAAGCGCCCGCCCGGGCGUAUGGCAACGCGGAGCCAAGCUUCGGCGCCUGCGCCGAUGCAGGUGUAGUGACUAGACGGCACCCACCUAAGGCAAACGCUAUGGUGAAGGCAUAGUCCAGGGAGCGGCGAAAGUCACACAAACCGG has a reverse-splicing fitness of 0.0175.
For GUGCCUUGCGCCGGGAAACCACGCAAGGGAUGGUGUCAAAUUCGGCGAAACCUAAGCGCCCGCCCGGGCGUAUGGCAACGCGGAGCCAAGCUUCGGCGCCUGCGCCGAUGCAGGUGUAGAGACUAGACGGCACCCACCUAAGGCCAACGCUAUGGUGAAGGCAUAGUCCAGGGAGUGGCGAAAGUCACACAAACCGG, the reverse-splicing fitness was 0.29.
Variant GUGCCUUGCGCCGGGAAACCACGCAAGGGAUGGUGUCAAAUUCGGCGAAACCUAAGCGCCCGCCCGGGCGUAUGGCAACGCGGAGCCAAGCUUCGGCGCCUGCGCCGAUGCAGGUGUAGAGACUAGACGGCACCCACCUAAGGCCAACGAUAUGGUGAAGGCAUAGUCAAGGGAGGGGCGAAAGUCACACAAACCGG has a reverse-splicing fitness of 0.00782.
Work on GUGCCUUGCGCCGGGAAACCACGCAAGGGAUGGUGUCAAAUUCGGCGAAACCUAAGCGCCCGCCCGGGCGUAUGGCAACGCGGAGCCAAGCUUCGGCGCCUGCGCCGAUGCAGGUGUAGAGACUAGACGGCACCCACCUAAGGCCAACGAUAUGGUGAAGGCAUAGUCAAGGGAGAGGCGAAAGUCACACAAACCGG yielded a reverse-splicing fitness of 0.0136.
GUGCCUUGCGCCGGGAAACCACGCAAGGGAUGGUGUCAAAUUCGGCGAAACCUAAGCGCCCGCCCGGGCGUAUGGCAACGCGGAGCCAAGCUUCGGCGCCUGCGCCGAUGCAGGUGUAGAGACUAGACGGCACCCACCUAAGGCCAACGAUAUGGUGAAGGCAUAGUCAAGGGAGCGGCGAAAGUCACACAAACCGG gave a reverse-splicing fitness of 0.00947.
GUGCCUUGCGCCGGGAAACCACGCAAGGGAUGGUGUCAAAUUCGGCGAAACCUAAGCGCCCGCCCGGGCGUAUGGCAACGCGGAGCCAAGCUUCGGCGCCUGCGCCGAUGCAGGUGUAGAGACUAGACGGCACCCACCUAAGGCCAACGAUAUGGUGAAGGCAUAGUCGAGGGAGCGGCGAAAGUCACACAAACCGG showed a reverse-splicing fitness of 0.0224.
GUGCCUUGCGCCGGGAAACCACGCAAGGGAUGGUGUCAAAUUCGGCGAAACCUAAGCGCCCGCCCGGGCGUAUGGCAACGCGGAGCCAAGCUUCGGCGCCUGCGCCGAUGCAGGUGUAGAGACUAGACGGCACCCACCUAAGGCCAACGAUAUGGUGAAGGCAUAGUCGAGGGAGGGGCGAAAGUCACACAAACCGG gave a reverse-splicing fitness of 0.00878.
For GUGCCUUGCGCCGGGAAACCACGCAAGGGAUGGUGUCAAAUUCGGCGAAACCUAAGCGCCCGCCCGGGCGUAUGGCAACGCGGAGCCAAGCUUCGGCGCCUGCGCCGAUGCAGGUGUAGAGACUAGACGGCACCCACCUAAGGCCAACGAUAUGGUGAAGGCAUAGUCGAGGGAGAGGCGAAAGUCACACAAACCGG, the reverse-splicing fitness was 0.0237.
With GUGCCUUGCGCCGGGAAACCACGCAAGGGAUGGUGUCAAAUUCGGCGAAACCUAAGCGCCCGCCCGGGCGUAUGGCAACGCGGAGCCAAGCUUCGGCGCCUGCGCCGAUGCAGGUGUAGUGACUAGACGGCACCCACCUAAGGCAAACGCUAUGGUGAAGGCAUAGUCAAGGGAGCGGCGAAAGUCACACAAACCGG the reverse-splicing fitness was 0.00457.
GUGCCUUGCGCCGGGAAACCACGCAAGGGAUGGUGUCAAAUUCGGCGAAACCUAAGCGCCCGCCCGGGCGUAUGGCAACGCGGAGCCAAGCUUCGGCGCCUGCGCCGAUGCAGGUGUAGUGACUAGACGGCACCCACCUAAGGCAAACGCUAUGGUGAAGGCAUAGUCAAGGGAGAGGCGAAAGUCACACAAACCGG gave a reverse-splicing fitness of 0.00425.
GUGCCUUGCGCCGGGAAACCACGCAAGGGAUGGUGUCAAAUUCGGCGAAACCUAAGCGCCCGCCCGGGCGUAUGGCAACGCGGAGCCAAGCUUCGGCGCCUGCGCCGAUGCAGGUGUAGUGACUAGACGGCACCCACCUAAGGCAAACGCUAUGGUGAAGGCAUAGUCAAGGGAGGGGCGAAAGUCACACAAACCGG gave a reverse-splicing fitness of 0.00246.
For GUGCCUUGCGCCGGGAAACCACGCAAGGGAUGGUGUCAAAUUCGGCGAAACCUAAGCGCCCGCCCGGGCGUAUGGCAACGCGGAGCCAAGCUUCGGCGCCUGCGCCGAUGCAGGUGUAGAGACUAGACGGCACCCACCUAAGGCCAACGAUAUGGUGAAGGCAUAGUCCAGGGAGUGGCGAAAGUCACACAAACCGG, the reverse-splicing fitness was 0.016.
With GUGCCUUGCGCCGGGAAACCACGCAAGGGAUGGUGUCAAAUUCGGCGAAACCUAAGCGCCCGCCCGGGCGUAUGGCAACGCGGAGCCAAGCUUCGGCGCCUGCGCCGAUGCAGGUGUAGAGACUAGACGGCACCCACCUAAGGCCAACGAUAUGGUGAAGGCAUAGUCCAGGGAGCGGCGAAAGUCACACAAACCGG the reverse-splicing fitness was 0.0188.
GUGCCUUGCGCCGGGAAACCACGCAAGGGAUGGUGUCAAAUUCGGCGAAACCUAAGCGCCCGCCCGGGCGUAUGGCAACGCGGAGCCAAGCUUCGGCGCCUGCGCCGAUGCAGGUGUAGAGACUAGACGGCACCCACCUAAGGCCAACGAUAUGGUGAAGGCAUAGUCCAGGGAGAGGCGAAAGUCACACAAACCGG gave a reverse-splicing fitness of 0.0144.

From the RNAGym collection of RNA variant scans (doi:10.1093/molbev/msab373)
